Data reported in article PMC9719943, “Expression and structural analysis of human neuroligin 2 and neuroligin 3 implicated in autism spectrum disorders” (Frontiers in Endocrinology, 2022).

B1: full-length human NLGN3 (natural protein, UniProt Q9NZ94 38-848, looked up)
chain: QAPAPTVNTHFGKLRGARVPLPSEILGPVDQYLGVPYAAPPIGEKRFLPPEPPPSWSGIRNATHFPPVCPQNIHTAVPEVMLPVWFTANLDIVATYIQEPNEDCLYLNVYVPTEDVKRISKECARKPNKKICRKGGSGAKKQGEDLADNDGDEDEDIRDSGAKPVMVYIHGGSYMEGTGNMIDGSILASYGNVIVITLNYRVGVLGFLSTGDQAAKGNYGLLDQIQALRWVSENIAFFGGDPRRITVFGSGIGASCVSLLTLSHHSEGLFQRAIIQSGSALSSWAVNYQPVKYTSLLADKVGCNVLDTVDMVDCLRQKSAKELVEQDIQPARYHVAFGPVIDGDVIPDDPEILMEQGEFLNYDIMLGVNQGEGLKFVEGVVDPEDGVSGTDFDYSVSNFVDNLYGYPEGKDTLRETIKFMYTDWADRDNPETRRKTLVALFTDHQWVEPSVVTADLHARYGSPTYFYAFYHHCQSLMKPAWSDAAHGDEVPYVFGVPMVGPTDLFPCNFSKNDVMLSAVVMTYWTNFAKTGDPNKPVPQDTKFIHTKANRFEEVAWSKYNPRDQLYLHIGLKPRVRDHYRATKVAFWKHLVPHLYNLHDMFHYTSTTTKVPPPDTTHSSHITRRPNGKTWSTKRPAISPAYSNENAQGSWNGDQDAGPLLVENPRDYSTELSVTIAVGASLLFLNVLAFAALYYRKDKRRQEPLRQPSPQRGAGAPELGAAPEEELAALQLGPTHHECEAGPPHDTLRLTALPDYTLTLRRSPDDIPLMTPNTITMIPNSLVGLQTLHPYNTFAAGFNSTGLPHSHSTTRV
notes: neuroligin 3 (NLGN3), human, full-length gene in pCDNA3.1; UniProt ID Q9NZ94 printed for NLGN3; also called neuroligin 3
B2: extracellular domain of human NLGN2 (domain or fragment, UniProt Q8NFZ4 15-677, looked up)
chain: QRGGGGPGGGAPGGPGLGLGSLGEERFPVVNTAYGRVRGVRRELNNEILGPVVQFLGVPYATPPLGARRFQPPEAPASWPGVRNATTLPPACPQNLHGALPAIMLPVWFTDNLEAAATYVQNQSEDCLYLNLYVPTEDGPLTKKRDEATLNPPDTDIRDPGKKPVMLFLHGGSYMEGTGNMFDGSVLAAYGNVIVATLNYRLGVLGFLSTGDQAAKGNYGLLDQIQALRWLSENIAHFGGDPERITIFGSGAGASCVNLLILSHHSEGLFQKAIAQSGTAISSWSVNYQPLKYTRLLAAKVGCDREDSAEAVECLRRKPSRELVDQDVQPARYHIAFGPVVDGDVVPDDPEILMQQGEFLNYDMLIGVNQGEGLKFVEDSAESEDGVSASAFDFTVSNFVDNLYGYPEGKDVLRETIKFMYTDWADRDNGEMRRKTLLALFTDHQWVAPAVATAKLHADYQSPVYFYTFYHHCQAEGRPEWADAAHGDELPYVFGVPMVGATDLFPCNFSKNDVMLSAVVMTYWTNFAKTGDPNQPVPQDTKFIHTKPNRFEEVVWSKFNSKEKQYLHIGLKPRVRDNYRANKVAFWLELVPHLHNLHTELFTTTTRLPPYATRWPPRPPAGAPGTRRPPPPATLPPEPEPEPGPRAYDRFPGDSRDYSTELS
notes: neuroligin 2 (NLGN2), human, extracellular domain; Subcloned into the secretory vector pSecTAG2B; also called neuroligin 2; NLGN2 ectodomain; source: Expi293F (HEK293F) cells, transiently transfected, purified (nickel resin, Superose 6 SEC)

Biological target: the molecule itself
Test: cryo-EM structure; purified NLGNs at 0.25 mg/ml on holey carbon grids; protein in 25 mM HEPES pH 7.5, 150 mM NaCl; homodimer, C2 symmetry

Protein | stoichiometry N
B1 | 2
B2 | 2
